Our source for the protein production values is a protein production outcome set (Wang et al. 2014).

The nature of this data set: label from the status in PepcDB records.
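Also: failed if final PepcDB status was selected cloned or expressed and not failed if soluble or beyond.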

Regarding “MKGRLLQRLRQLSISNSLRGAFLTGALLTLIVSMVSLYSWHEQSSQVRYSLDEYFPRIHSAFLIEGNLNLAVDQLNEFLLAPNTTVRLQLRTQIIQHLDKIERLSQGLQLAERRQLAVILQDSRTLLAELDNALYNMFLVREKVSELSARIDWLHDDFTTELNSLVQDFTWQQGTLLDQIEANQGDAAQYLQRSREVQNEQQQVYTLARIENQIVDDLRDRLNELKSGNNDGMLVETHIRYLENLKKTADENIRALDDWPSTITLRQTIDELLEIGMVKNKMPDTMRDYVAAQKALLDASRAREATLGRFRTLLEAQLGSSHQQMQTFNQRLEQIVRVSGGLILVTTLLALLLAWGLNHYFIRSRLVKRFTALNQAVVQIGLGRTDSTIPVYGRDELGRIARLLRHTLGQLNMQRRQLEQEVAERKEIEADLRAMQDELIQTAKLAVVGQTMTTLAHEINQPLNALSMYLFTAGRAIEQGQSGQARNTLTKAEGLINRIDAIIRSLRQFTRRAELETPLYPVDLRQTFVAAWELLAMRHQSRQGALSLPTDTVWVSGDEVRIQQVLVNVLANALDACSHDAAIAVTWQTQGEALEVYIADNGPGWPGALLPSLLKPFTTSKAVGLGIGLSISVSLMAQMKGDLRLASTLTRNACVVLQFSVTDVDDVE”, the protein production entry was “failed”.
Regarding “MKGSVKKDKKTGKYFYIVDIDIDPLTGKRKQKKKRGFTSKKEAENALTNLLSEVHTGTYVEPSKLSYGEYLESWFNTKRHSVGIQTAKVLKGYLNSRIIPSLGNIKLAKLTSLHMQNYVNSLRDEGLKRGTIEKIIKVIRNSLEHAIDLELITKNVAAKTKLPKADKEELTVWNEQEVQLFLKAAQDGRYSIVFHMALVTGMRQGELLGLRWKDVDLEKGHLIISQTLSHDGKTFLVGGKTKSSLRKILLPASTIAKLKKHRAVILKEKLSQGEEYQDNDLVMCTPSGTPINPANVRRSLNALIQKAAVPKIRFHDLRHTHATLLLAKGVNVKVISERLGHSNIKITLDTYSHVLPTMQEDAVNKMEEIL”, the protein production entry is listed as “failed”.
For “MKGVIMIIDGMADRPLEKLSGRTPLEAASTPNMDRIAESGINGIMDPIKPGVRAGSDTSHLSILGYDPYRVYTGRGPFEAAGVGLDVKPGDIAFRCNFATADEDMIITDRRAGRIRSGTSSIARTINSMTIEGFEDVEIIFRESTGHRAVLVLRGPGLGDKVSDADPKVEGKPPKKIKALDGSPESRKTAEVLNRIVKESYEILRDHPVNTGRIERGEAPANIILPRGAGAVPHVEKFQERYDLKAACIAETGLIKGIGHLTGMDVIDVEGATGGIDTDLESIKNAISSAIAADYDFLLINIDGADEAGHDGDLEGKVRFIERVDSILGDLMGDDIYFILTADHSTPVSVMDHTGDPVPIAITGPEVRVDDVTSFSERAAAAGGLCRIRGSDVMDILLDLMNKKEKFGALEHHHHHH” the value was “failed”; for “MKGVRSMMGNLVITIGRECGSAGRLIGQKLAADLGVKCYDKELLTLAAKNSGLCEELFKTHDEKPTSSFLYSLVMDTYSLGYNTSAYMDMPINHKIFLAQFDTIKKLAEEESCVIVGRCADYALADYPNTVSVFICGDEEDKIRHLMERHNVDEAKAKDIMIKTDKRRASYYNYYSSKRWGSCKSYDMCISSSAVGYDGAVDIIKEFAKKKQEFLKTKNYK”, “not failed”; for “MKHAKKSLFTFIIFMTILSITFNPFSAKAAPLMLNLPAPQVDQLYIGDDYITGKLQQEVPMHYPGNAAYVLFNNKQYNITDYTVENDVNFRLKLPKTLEAGDTLNYFTITGNVLDPVAYPGQESYKLAGPFSPIEKANIQVNYVDETNQTLATSDTLSGKLGETYTTSPKAIDGYQVKETPTNATGTYTTNTETIQINYVYEKTAVEGANVSVEYINEATNESIAPTETLSGKIGTTFQAEVKEIDGYELSQVPSNQSGTYTDQTQSVIFKYKKITTPDEVAKDVTVTYKDTKGNQLADPVILKGDIGSTFETEAKSFKGYKLTKTPSNHSSVFTSDSQEVEYVYSKDDAVITPPVTPVNPDKPIINPVKPVNPATSTVPNKNISKKNTTKTVNQTGKTSTALQLPKTGDSENNLPLIIGVSLLISGVYIFTTRRKRVK”, “failed”.
For “MKHGMNARKQLWIAVICMTFVVILGTIGFMTIEEISLFQAFWMTMITVLTVGYGDAVPVTQAGKVFALLIIPVGVGIVTYAIGVVAAMIIEGNLFHAVRRKKMDKQIAQLKNHIIVCGCGRVGLQVVHELQEKNIPFVVVDKDESILEQEKLLFVHGDATEDQVLHNAGILKAAGLVAIVANDAENVFITLTARGLNDTIKIVARSEKPETEEKLRRAGANKVINPSSMAGIHIAKGIANPLTVHYIDTVLYGIEQSFVIEEILVGKDSILVGKSLLESNVRNQFDVTILAISRNGDIIHNPAGQEKLKERDMIIVFGSVEKLGQFEKELQSTR” the value was “failed”; for “MKHIIILGDGMADWPAESLGNKTLLQYSSTPYMDKLAAMGRTGRLVTVAPGFHPGSEVANMSVMGYNLPKVYEGRGPLEAASIGVELQPGDMAMRCNIICIEDEKIKNHSAGHITTEEADVLVRYLEEKLGSDRIHFYTGVQYRHLLVIKGGNKQLDCTPPHDVPLQPFRPLMVKAEVPEAQETAGLINNLILASQELLADHPVNQKRIAEGKDPANSIWPWSPGYRPQMEPLSGKYPAIKKGAVISAVDLINGIGHYAGLRRIAVEGATGLYNTNYENKVAAALEALKTDDFVYLHIEASDEAGHEGDFKLKQFTIENLDKRVVGPVYEAVKDWDEPVAIAVLPDHPTPCELRTHTAEPVPFLIYYPGIEPDCVQTFDEVACVEGSYGILKEDEFMNEFMKK”, “failed”.
Regarding “MKHIQINPSILSADLARLGDDVKAVLAAGADNIHFDVMDNHYVPNLTFGPMVLKALRDYGITAGMDVHLMVKPVDALIESFAKAGATSIVFHPEASEHIDRSLQLIKSFGIQAGLALNPATGIDCLKYVESNIDRVLIMSVNPGFGGQKFIPAMLDKAKEISKWISSTDRDILLEIDGGVNPYNIAEIAVCGVNAFVAGSAIFNSDSYKQTIDKMRDELNKV”, the protein production entry is recorded as “not failed”.
Next, “MKHTLVITILIIMFSNGATAEEDKRSINESTTNMIAALQQKQWIHGSQDCKNNQDPAIEVFQYDESSYVLRQNKCLSYEAPFIYVLIGKEKILVVDTGATESAEEFPLYQTVQSLNQKHSDNGKTKEREIVVIHSHSHSDHYSADSQFVGQANVTVVAANNTGVNEFFDFEKWPEQQTNFELGGRSITIIPTPGHQEEAISVYDPQTKWLLTGDTFYPGYIYVKTWQDYKNSIARLVEFTNNHSVSAILGSHIEMTNKAGEYYEIGTIYQPNESSLLLTPSDLTALNEKLQQVDEPEKIAMDSLIVEPLGALPKLISSIAKWFIG”: “failed”; “MKIAILCASGKVGKEISKEALKRNLEPVCFVRNSSKMNEFLPQAKIVQRDLFELDSKDLIDFDIIIDAFGEWENLSLHKKHIECLSVILQGSKAKLFVVGGAGSLYMDENHTTRLMDMPDFPKEYLDIAKASAEVLEFLRNEKGFKWVYVSPSAIFSPDLPKSNHYKIIGEKFEVNANNESKISYSDYASAMIDIVLNSCYENTRIGVISL”: “failed”; “MKIAIVRLSALGDIIVSAVFLAVIKECLPNAQIEWFVDERFSAILEHSPYIDKLHPIALKSALKTLNPLKIFKLFKSLRAYEYDIIIDMQGLVKSALITQMLKAPKKVGFDYASAREGLSMFFYSQKVSIAYDEPVLKRNFTLLSHALNLPQKEISKEISESLSSRAKAFSYQPSPKIDALNLNKNKPKILFILETSKINKTYPIERFKELALILENFQICLLWHADEYKATTLYHALKHQRDVLLLPKLTLNEVKALLFKMDLIIGGDTGITHLAWALQKPSITLYGNTPMERFKLESPINVSLTGNSNANYHKKDFSIQNIEPKKIKECVLNILKEKE”: “failed”.
Turning to “MKIALFGTSADPPTLAHRAILIWLAQHFDQVAVWAADNPFKQGPNPETGHWASLGDRQAMLKLLVEDVQKDYATVQIWEDLSDRRSLISLQRAQQRWGLEPDYALVVGADLIRQISQWYAVKELLPAVQLVIFPRPGYGINQADLDKLAQLGGHYQLVNQGDDQAITPPISSSIYRQIRDDDLIPDPVQSYIQQRQLYRQ”, the protein production entry was “failed”.
In the case of “MKIEQLYTGCLAEAAYYIESEGEAIIIDPLRDIQTYVQKIERNNVTLKYIFETHFHADFVSGHLDLAEATGATIVYGPKAETTFNSHIAYDGEKISIGKITLQVLHTPGHTQESSCYLLYDEDGNKHALFTGDTLFIGDVGRPDLAIKSDLTKEDLAGMLYDSLEEKIKPLPDAITIYPAHGAGSACGKNLSKETFDTLGSQKQKNYALKAADKETFIKQVLDDLQPAPSYFNMNALLNKEGPGSVSELIKQGSIAFDVQSFENLQRQTYAVLLDTRDAKEFKKGFIPGSINIGLNGQLAPWAGTLLTNSDKPILIITDPGKEEETIIRLARVGVDQVIGYLKDGYNSWQKANKPEENIETISAAELVEKLDENINILDVRKADEYEKGHLNAAQHLPLDYINDWITTLDKNKTYYVHCAGGYRSVITESILKSRNISNVIDVSGGYGAIKAAMEPTKKRWLNAFFSFMKVK”, the protein production result was “failed”.
For the sequence “MKIFNLLVGGAPENLPDNLNDFEGDWIGVDRGALKLIEMGLIPEVAVGDFDSVNDQEFKEIEANAKQVIKLDPVKDDTDTESGLKYALDHDPRAHIRVLGISGGRLDHLLANVLMVLQDRFRMFAEQIELIDRQNNIRFFNSGKHTVDKLEGFKYLSFIPLTQIDVLTLDDEKYELHNAMVSNARAYVSNEFIDSKATVYLSNGLVAVIQSKD”, the protein production entry is reported as “failed”.
For “MKIGIIGATGRAGSRILEEAKNRGHEVTAIVRNAGKITQTHKDINILQKDIFDLTLSDLSDQNVVVDAYGVSPDEAEKHVTSLDHLISVLNGTVSPRLLVVGGAASLQIDEDGNTLLESKGLREAPYYPTARAQAKQLEHLRSHQAEFSWTYISPSAMFEPGERTGDYQIGKDHLLFGSDGNSFISMEDYAIAVLDEIERPNHLNERFTVAGK” the value was “failed”; for “MKIIGFACQWCAYQAADLAGSLKMKYPESIRLLRVPCSGRVNAEFILKALLSGADGVFVAGCPISECHYRSGNRIAKTKVALLKRLLPEFGLESGRVEFLQVSSADARKFVEFAKEFDERIRKLG”, “failed”; for “MKIIIVGGGVTGSELARRLIRKKHDVVLIERDEETARHAANRLDCMVVQAAGNDTQILLDAGIKKAEAMIAVTDSDELNMIICGIADSLAPQVIKIARVRNEDYVKALNFSEERTLGINALVYPDEEAALAVIQAIEHGAVSDILSFENSSYELSRFNVCEKSTLDGLAVFDIRKYVDIPFIVVSVEQNGKNRIPSGDTILTAGTRVSILTKPEHIKRFYELSGFETQEFKKIALVGMGRIGKSIAEYLLKNSKGKSFLSKLLPINLNQKWKISIIETNDKKAKEVAAEFPEASIYKADVTDESFVDEIGLDSFDLVICTTPNYEFNMIACAYLKTLGVYKTISLVQSAVLENVAYKIGVDVAVSFKDVVVDSIMSHLVSENVTSVHTMGDGKLEIIELQVSEKSPVLGQKLKDISQHGVYLVLLVTDENGEQIPTGDTEVKAGYKIVFIVKSSRSDEIIKIFGGN”, “failed”.
As to “MKIILFLTLIVFTSCELYHYQECVRGTTVLLKEPCPSGTYEGNSPFHPLADNKFALTCTSTHFAFACADGTRHTYQLRARSVSPKLFIRQEEVQQELYSPLFLIVAALVFLILCFTIKRKTE”, the protein production entry is reported as “not failed”.
Regarding “MKILAIINPISGIGSKSNIPSLIADVFAHDPHELFITYSQRAGHARELAAQAVEKHYDCVIAVGGDGTVNEIAQSLRYTDVVLGIVPKGSGNGLARALKLPLTVGKALEVIRAGHVRTIDCCEADSR”, the protein production result is recorded as “failed”.
“MKILIVSNTALGDTILSTPLFRETRLALPKAHITALLNPVNAMLFETNPYLDKIELYGGRWRGFLGAWWKLWRRGFDVALLGHSNDPQITPLCLLLGISKIIKIPNHKNPWQRFHHNPLEHHHHHH”: the protein production entry was “failed”.
